From patent US20150071907A1 (published 2015) come the findings set out here.

The target of this assay is T1, human macrophage mannose receptor (MMR) (human, UniProt P22897 19-1456).
T1 sequence (looked up): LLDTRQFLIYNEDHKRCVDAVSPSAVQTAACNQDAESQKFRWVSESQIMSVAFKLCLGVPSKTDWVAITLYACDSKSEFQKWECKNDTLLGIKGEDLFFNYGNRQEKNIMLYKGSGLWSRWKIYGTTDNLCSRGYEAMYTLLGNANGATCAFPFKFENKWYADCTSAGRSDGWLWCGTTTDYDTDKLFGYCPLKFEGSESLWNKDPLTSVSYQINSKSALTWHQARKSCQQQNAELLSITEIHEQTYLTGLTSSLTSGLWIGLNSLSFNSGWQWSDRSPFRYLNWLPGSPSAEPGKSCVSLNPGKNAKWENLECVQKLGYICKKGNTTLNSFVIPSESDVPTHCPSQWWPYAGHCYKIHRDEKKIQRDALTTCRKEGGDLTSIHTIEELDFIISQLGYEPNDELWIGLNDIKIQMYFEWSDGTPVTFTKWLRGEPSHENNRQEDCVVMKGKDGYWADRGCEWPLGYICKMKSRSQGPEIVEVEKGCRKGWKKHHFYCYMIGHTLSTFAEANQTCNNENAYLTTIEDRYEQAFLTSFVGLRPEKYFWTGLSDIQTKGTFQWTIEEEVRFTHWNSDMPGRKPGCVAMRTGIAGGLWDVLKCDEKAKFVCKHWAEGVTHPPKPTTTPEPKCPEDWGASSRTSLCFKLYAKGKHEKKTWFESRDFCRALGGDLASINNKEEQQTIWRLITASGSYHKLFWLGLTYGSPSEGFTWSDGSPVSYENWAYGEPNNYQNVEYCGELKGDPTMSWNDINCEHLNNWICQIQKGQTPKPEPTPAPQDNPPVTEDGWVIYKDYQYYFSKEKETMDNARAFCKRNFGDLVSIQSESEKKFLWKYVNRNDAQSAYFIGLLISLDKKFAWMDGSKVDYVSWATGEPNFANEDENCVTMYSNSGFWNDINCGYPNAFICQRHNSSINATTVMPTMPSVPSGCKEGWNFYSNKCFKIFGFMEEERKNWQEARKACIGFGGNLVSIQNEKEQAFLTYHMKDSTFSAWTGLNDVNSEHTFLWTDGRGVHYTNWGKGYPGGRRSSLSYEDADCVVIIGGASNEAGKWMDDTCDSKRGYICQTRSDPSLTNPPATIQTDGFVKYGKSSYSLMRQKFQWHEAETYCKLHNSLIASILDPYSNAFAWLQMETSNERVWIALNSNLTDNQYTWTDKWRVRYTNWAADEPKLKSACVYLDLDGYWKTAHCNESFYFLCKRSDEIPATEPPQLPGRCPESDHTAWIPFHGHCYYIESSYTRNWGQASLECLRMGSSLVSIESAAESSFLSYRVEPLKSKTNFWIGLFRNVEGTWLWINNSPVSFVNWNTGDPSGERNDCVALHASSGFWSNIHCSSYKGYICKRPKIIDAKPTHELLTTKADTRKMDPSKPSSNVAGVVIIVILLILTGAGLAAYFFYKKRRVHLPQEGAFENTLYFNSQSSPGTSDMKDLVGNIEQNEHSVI
The experiment in a line: cell-based or functional assay.

B1: velaglucerase alfa (enzyme, human, UniProt P04062 40-536, looked up)
chain: ARPCIPKSFGYSSVVCVCNATYCDSFDPPTFPALGTFSRYESTRSGRRMELSMGPIQANHTGTGLLLTLQPEQKFQKVKGFGGAMTDAAALNILALSPPAQNLLLKSYFSEEGIGYNIIRVPMASCDFSIRTYTYADTPDDFQLHNFSLPEEDTKLKIPLIHRALQLAQRPVSLLASPWTSPTWLKTNGAVNGKGSLKGQPGDIYHQTWARYFVKFLDAYAEHKLQFWAVTAENEPSAGLLSGYPFQCLGFTPEHQRDFIARDLGPTLANSTHHNVRLLMLDDQRLLLPHWAKVVLTDPEAAKYVHGIAVHWYLDFLAPAKATLGETHRLFPNTMLFASEACVGSKFWEQSVRLGSWDRGMQYSHSIITNLLYHVVGWTDWNLALNPEGGPNWVRNFVDSPIIVDITKDTFYKQPMFYHLGHFSKFIPEGSQRVGLVASQKNDLDAVALMHPDGSAVVVVLNRSSKDVPLTIKDPAVGFLETISPGYSIHTYLWRRQ
modifications: primarily high-mannose type N-glycans (6-9 mannose units per glycan) at Asn19, Asn59, Asn146, Asn270
With B1, the “internalization rate in U937 cells relative to imiglucerase (4-MU-glc activity assay)” value was ≤ 2.5 fold.
